B1: JHAMT mutant probe (dsDNA)
DNA 1: ATGGCTAATTTTTTCCCCGAATTAAAAGAAC
DNA 2: GTTCTTTTAATTCGGGGAAAAAATTAGCCAT
B2: Allatotropin mutant probe (dsDNA)
DNA 1: CCATAGGTTTGTAGACCCCCAGCGTAGCACGCTGTA
DNA 2: TACAGCGTGCTACGCTGGGGGTCTACAAACCTATGG
B3: FPPS2 probe (dsDNA)
DNA 1: TCGCAAGTGAAAACAATTAATTCGCAATCGGTTCA
DNA 2: TGAACCGATTGCGAATTAATTGTTTTCACTTGCGA
B4: Allatotropin probe (dsDNA)
DNA 1: CCATAGGTTTGTAGATAATTAGCGTAGCACGCTGTA
DNA 2: TACAGCGTGCTACGCTAATTATCTACAAACCTATGG
B5: JHAMT probe (dsDNA)
DNA 1: ATGGCTAATTTTTTTAATGAATTAAAAGAAC
DNA 2: GTTCTTTTAATTCATTAAAAAAATTAGCCAT
B6: FPPS2 mutant probe (dsDNA)
DNA 1: TCGCAAGTGAAAACACCCCCTTCGCAATCGGTTCA
DNA 2: TGAACCGATTGCGAAGGGGGTGTTTTCACTTGCGA

Legend:
Scr (Sex combs reduced) [1] = biological target: T1, Scr (Sex combs reduced) (Bombyx mori, UniProt Q9XZR4 1-356); test: competition; unlabeled mutant, 5-50x, against labeled N5; EMSA: 0.1-1 ug protein, 5 uM labeled probe, 15 uL with 3 uL 5x binding buffer (Beyotime, composition not given), 25 C, 20 + 20 min; 5% PAGE in 1x TBE (45 mM Tris-borate, 1 mM EDTA, pH 8.3); conditions: protein: recombinant; tags: His-SUMO (N-terminal, pCold-SUMO); label: none; blunt
T1 sequence (Q9XZR4 entry or part of it): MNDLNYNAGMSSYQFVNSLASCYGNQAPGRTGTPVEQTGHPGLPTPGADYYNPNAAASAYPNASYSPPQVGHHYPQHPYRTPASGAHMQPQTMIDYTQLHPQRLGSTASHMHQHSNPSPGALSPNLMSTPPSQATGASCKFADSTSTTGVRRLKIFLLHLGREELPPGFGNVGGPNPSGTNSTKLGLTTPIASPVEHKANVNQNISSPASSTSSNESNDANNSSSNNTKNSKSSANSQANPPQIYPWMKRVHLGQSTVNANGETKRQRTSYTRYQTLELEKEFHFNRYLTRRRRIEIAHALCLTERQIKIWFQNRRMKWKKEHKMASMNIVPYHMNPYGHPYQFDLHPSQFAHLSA

Scr (Sex combs reduced) [2] = biological target: T1, Scr (Sex combs reduced); test: competition; unlabeled mutant, 5-50x, against labeled N1; EMSA: 0.1-1 ug protein, 5 uM labeled probe, 15 uL with 3 uL 5x binding buffer (Beyotime, composition not given), 25 C, 20 + 20 min; 5% PAGE in 1x TBE (45 mM Tris-borate, 1 mM EDTA, pH 8.3); conditions: protein: recombinant; tags: His-SUMO (N-terminal, pCold-SUMO); label: none; blunt
Scr (Sex combs reduced) [3] = biological target: T1, Scr (Sex combs reduced); test: EMSA; dose-dependent; competed by unlabeled probe; EMSA: 0.1-1 ug protein, 5 uM labeled probe, 15 uL with 3 uL 5x binding buffer (Beyotime, composition not given), 25 C, 20 + 20 min; 5% PAGE in 1x TBE (45 mM Tris-borate, 1 mM EDTA, pH 8.3); conditions: protein: recombinant; tags: His-SUMO (N-terminal, pCold-SUMO); label: 5'-Cy3; blunt
Scr (Sex combs reduced) [4] = biological target: T1, Scr (Sex combs reduced); test: competition; unlabeled mutant, 5-50x, against labeled N3; EMSA: 0.1-1 ug protein, 5 uM labeled probe, 15 uL with 3 uL 5x binding buffer (Beyotime, composition not given), 25 C, 20 + 20 min; 5% PAGE in 1x TBE (45 mM Tris-borate, 1 mM EDTA, pH 8.3); conditions: protein: recombinant; tags: His-SUMO (N-terminal, pCold-SUMO); label: none; blunt

Row | Binder | binding result (Scr (Sex combs reduced) [3]) | other results
1 | B1 |  | binding result (Scr (Sex combs reduced) [1]): no binding
2 | B2 |  | binding result (Scr (Sex combs reduced) [2]): no binding
3 | B3 | binds | 
4 | B4 | binds | 
5 | B5 | binds | 
6 | B6 |  | binding result (Scr (Sex combs reduced) [4]): no binding

Source: PMC4661804, “Homeodomain Protein Scr Regulates the Transcription of Genes Involved in Juvenile Hormone Biosynthesis in the Silkworm”
